Molecular target: biotinylated recombinant SARS-CoV-2 wild type spike RBD (SARS-CoV-2, UniProt P0DTC2 319-541)
Test: FACS

B1: REGN10987 scFv displayed on the surface of HEK 293T cells (scFv, V domains shown)
VH: QVQLVESGGGVVQPGRSLRLSCAASGFTFSNYAMYWVRQAPGKGLEWVAVISYDGSNKYYADSVKGRFTISRDNSKNTLYLQMNSLRTEDTAVYYCASGSDYGDYLLVYWGQGTLVTVSS
VL: QSALTQPASVSGSPGQSITISCTGTSSDVGGYNYVSWYQQHPGKAPKLMIYDVSKRPSGVSNRFSGSKSGNTASLTISGLQSEDEADYYCNSLTSISTWVFGGGTKLTVL
Kd: 8.33 nM
